These results are taken from PMC11579453 (Nature Communications, 2024).

Read-outs that look alike come from different tables or passages of the source.

The target in one series is Aβ42 amyloid fibrils (UniProt P05067). The experiment in a line: microfluidic diffusional sizing; Alexa647-labelled BRICHOS held constant (three concentrations a curve set), Aβ42 fibrils varied between 0.01 and 24 µM (monomer equivalents), incubated 48 h; global fit of Kd and stoichiometry.
Series [1] has as its target WT α-Synuclein amyloid fibrils (human) (UniProt P37840). The experiment in a line: microfluidic diffusional sizing; Alexa647-labelled BRICHOS held constant (three concentrations a curve set), α-Syn fibrils varied between 0.01 and 24 µM (monomer equivalents), equilibrium within 2 hours; global fit of Kd and stoichiometry.
The target is the same in series [2]. The series is described as above. This is another data set of the same source.
Series [3] has the same target. The experiment in a line: single-molecule TIRF microscopy (single particle tracking); α-Syn fibrils immobilised on a glass coverslip, blocked with BSA; Atto647-labelled Var II added at 1-100 nM in PBS.
Series [4] has the same target. The experiment in a line: NMR signal intensity ([15N,1H]-HMQC), competition; 100 µM 15N-labelled α-Syn monomer with 540 µM unlabelled α-Syn fibrils, 2 h at 4 °C, then unlabelled Var II added at 100, 300 or 500 µM, followed for ~120 min; 25 mM phosphate, 25 mM NaCl, pH ~6.8.
Series [5] addresses T1, proSP-C BRICHOS (K114I, R139Q) (UniProt P11686 90-197, K114I | R139Q, Alexa647 label in the microfluidic diffusional sizing (site not stated); Atto647 succinimidyl ester (amine labelling) in the single-molecule microscopy; 15N labelled in the NMR binding experiments …).
T1 construct: BRICHOS domain of proSP-C, residues 90-197, with two salt-bridge mutations of the trimer interface; Monomer by light scattering, diffusional sizing and NMR structure; also called variant II; Var II; source: E. coli BL21(DE3*) pLysS, purified (Ni-NTA, TEV digestion, Ni chromatography, SEC); not shown: His tag, N-terminal, cleaved; NT* solubility tag, N-terminal, cleaved
T1 sequence (looked up): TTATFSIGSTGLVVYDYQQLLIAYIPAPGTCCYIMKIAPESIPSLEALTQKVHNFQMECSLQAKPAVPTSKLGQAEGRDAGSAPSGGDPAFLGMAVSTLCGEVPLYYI
The experiment in a line: NMR titration; 15N-labelled Var II, [15N,1H]-TROSY, peptide added at 100 µM to 2 mM; 25 mM phosphate, 25 mM NaCl, pH ~6.8, 2.5% DMSO, 303 K. Particulars: both partners purified.

Series [6] concerns the molecule itself. The experiment in a line: multi-angle light scattering; proSP-C BRICHOS alone in solution; molecular mass read out; conditions not stated.
Where [7] appears, read: scale: monomer units in the fibril per BRICHOS molecule.

Take “WT proSP-C BRICHOS domain (residues 90-197) (from UniProt P11686 90-197) (domain or fragment)”: the Kd was found to be 0.192 µM in the series with Aβ42 amyloid fibrils and 0.696 µM in series [1]. Moreover, the results for the stoichiometry N (with Aβ42 amyloid fibrils (scale: Aβ42 monomer units on the fibril per BRICHOS molecule); in series [1] (scale: monomer units of α-Syn per BRICHOS molecule)) were 8 and 38, respectively.

Take “proSP-C BRICHOS (E135R, R139E) (from UniProt P11686 90-197) (domain or fragment)”: the Kd turned out to be 1.26 µM in series [1] and 0.00126 µM in series [2]. In addition, in series [1] (setting [7]), the stoichiometry N was 18.

Take “proSP-C BRICHOS (K114I, R139Q) (from UniProt P11686 90-197) (domain or fragment)”: in series [3], the residence time on the fibrils fell in the range of 350 to 400 ms and the residence time on the fibrils (three exemplary molecules) was found to be 100 s. In the series with Aβ42 amyloid fibrils, the Kd worked out at 0.0214 µM. Moreover, the stoichiometry N in the series with Aβ42 amyloid fibrils (setting [7]) came out at 6. Besides, the Kd in series [1] amounted to 0.45 µM. The stoichiometry N in series [1] (scale: monomer units in the fibrils per BRICHOS molecule) amounted to 7. In series [2], the equilibrium dissociation constant (Kd) came out at 450 µM. In series [4], the percent of fibril-bound monomeric α-Syn released (100 µM Var II) worked out at 25%, the percent of fibril-bound monomeric α-Syn released (300 µM Var II) stood at 50% and the percent of fibril-bound monomeric α-Syn released (500 µM Var II) came to 65%.

B1: client peptide B (peptide)
peptide: VLEMGSGSGSKKVVVVVKK
notes: model client peptide, designed to be able to form a beta hairpin; said to represent part of the transmembrane helical segment of native proSP-C; Dissolved in DMSO at 20 mM stock; also called substrate peptide; source: synthetic peptide; bought: GL Biochem, Shanghai
As to B1, in series [5], the Kd was roughly 800 µM.

B2: WT proSP-C BRICHOS domain (residues 90-197) (domain or fragment, UniProt P11686 90-197, looked up)
chain: TTATFSIGSTGLVVYDYQQLLIAYKPAPGTCCYIMKIAPESIPSLEALTRKVHNFQMECSLQAKPAVPTSKLGQAEGRDAGSAPSGGDPAFLGMAVSTLCGEVPLYYI
modifications: Alexa647 label in the microfluidic diffusional sizing (site not stated); 15N,13C labelled for NMR
notes: BRICHOS domain of the lung surfactant protein C precursor (proSP-C), residues 90-197; Homotrimer by light scattering, diffusional sizing and NMR structure; Disulfide bridges 120-148 and 121-189 were restrained in the structure calculation; BMRB entries 34811 and 34813 are printed without saying which is the trimer; also called WT BRICHOS; trimeric proSP-C BRICHOS; not shown: His tag, N-terminal, …
Regarding B2, the “stoichiometry N” value in series [6] was found to be 3.

What is called Kd is a measure of binding affinity in units of concentration. As usually defined, the stoichiometry N is the number of molecules, sites or subunits per partner or assembly.
